# Numbering of substitutions follows the chain as printed. Names may count otherwise.
# B1: NanR dimer: V. vulnificus transcriptional repressor of the nan operon, SEQ ID NO. 1 (protein, listed as Vibrio vulnificus)
# chain: MGSPKNLLVRLRSNMEPFSKKLRVVADYILENAHDVQFQTITDLARNTQTSEATVVRLCRDMGYKGYSDFRMALAVDLSQTESRQQNHIEGDICDVSAQSAVDSLQDTAKLIDRKSLARIVERVHQAEFIGCIGVGASSIVGRYLAYRLIRIGKKAIMFEDTHLAAMSASRSSQGDLWFAVSSSGSTKEVIHAAGLAYKRDIPVVSLTNINHSPLSSLSTEMLVAARPEGPLTGGAFASKVGALLLVDVLVNSLLESYPEYKDSVQETAEVVIPLMAN
# modifications: homodimer
# B2: S138A: modified NanR protein, Ser138 substituted with alanine (protein)
# chain: B1 chain with S138A
# B3: H163A: modified NanR protein, His163 substituted with alanine (protein)
# chain: B1 chain with H163A
# B4: H163L: modified NanR protein, His163 substituted with leucine (protein)
# chain: B1 chain with H163L
# B5: S182A: modified NanR protein, Ser182 substituted with alanine (protein)
# chain: B1 chain with S182A
# B6: E229L: modified NanR protein, Glu229 substituted with leucine (protein)
# chain: B1 chain with E229L
# B7: K240A: modified NanR protein, Lys240 substituted with alanine (protein)
# chain: B1 chain with K240A
# B8: K240M: modified NanR protein, Lys240 substituted with methionine (protein)
# chain: B1 chain with K240M
# B9: R57A: modified NanR protein, Arg57 substituted with alanine (protein)
# chain: B1 chain with R57A
# B10: R57L: modified NanR protein, Arg57 substituted with leucine (protein)
# chain: B1 chain with R57L
# B11: R60A: modified NanR protein, Arg60 substituted with alanine (protein)
# chain: B1 chain with R60A
# B12: R60L: modified NanR protein, Arg60 substituted with leucine (protein)
# chain: B1 chain with R60L
# B13: S184A: modified NanR protein, Ser184 substituted with alanine (protein)
# chain: B1 chain with S184A
# B14: NanR complexed with ManNAc-6P: complex formed by interaction between NanR protein and ManNAc-6P (protein, UniProt P0A8W0 1-263, looked up)
# HTH-type transcriptional …: MGLMNAFDSQTEDSSPAIGRNLRSRPLARKKLSEMVEEELEQMIRRREFGEGEQLPSERELMAFFNVGRPSVREALAALKRKGLVQINNGERARVSRPSADTIIGELSGMAKDFLSHPGGIAHFEQLRLFFESSLVRYAAEHATDEQIDLLAKALEINSQSLDNNAAFIRSDVDFHRVLAEIPGNPIFMAIHVALLDWLIAARPTVTDQALHEHNNVSYQQHIAIVDAIRRHDPDEADRALQSHLNSVSATWHAFGQTTNKKK
# modifications: complexed with ManNAc-6P
# B15: K188A (protein)
# chain: B1 chain with K188A
# B16: K188L (protein)
# chain: B1 chain with K188L
# B17: K199A (protein)
# chain: B1 chain with K199A
# B18: K199L (protein)
# chain: B1 chain with K199L
# Legend:
# [1] = test system: nanTp-nanE intergenic region; assay: EMSA of NanR with nanTp-nanE intergenic region; assay type: binding, Vibrio vulnificus; conditions: for DNA binding in EMSA: wild-type or mutant NanR
# Protocol: (§1) Purified His-NanR protein was used to raise a primary polyclonal antibody by immunizing European rabbits (Oryctolagus curiculus). First, after one primary injection containing 500 μg of protein, three boosters containing 200 μg of protein was performed at 2-week intervals. Western blotting, EMSA and DNaseI footprinting assays were performed according to typical procedures known in the art.
# NanR represses both nan T(PSL)AR and nanEK nagA operons by binding to an operator within the nanTp-nanE intergenic region. To examine the role of R57 and R60 residues in DNA binding, EMSA (electrophoretic gel mobility shift assays), in which the nanTp-nanE intergenic region was incubated with wild-type or mutant NanR in the absence or presence of ManNAc-6P, were performed.
# The importance of K188 and K199 residues on all to binding of NanR to DNA was assessed by EMSA. […] Furthermore, the mutants were much more susceptible to ManNAc-6P than wild-type NanR (FIG. 10). […] The transcriptional control region of nan operon interacts with the dimer via the positively charged residues in this space (FIGS. 7b and 7c).
# [2] = test system: 32P-labeled transcriptional control region of nan operon; assay: DNaseI footprinting assay; assay type: binding, Vibrio vulnificus; conditions: 400 nM NanR, 0.1 mM or 1 mM ManNAc-6P
# Protocol: as §1
# (§2) Therefore, the present inventors hypothesized that binding of ManNAc-6P may alter the conformation of NanR and alleviate its interaction with the transcriptional control region of nan operon. In detail, a DNaseI footprinting assay using NanR protein and ^32P-labeled transcriptional control region of nan operon was performed.
# [3] = molecular target: NanR-binding duplex DNA (transcriptional control region of nan operon); assay: Isothermal titration calorimetry of NanR with NanR-binding duplex DNA; parameters: species or system Vibrio vulnificus; conditions: for Kd: ITC at 25° C., 0.48 mM protein titrated against 0.03 mM DNA, read-out: dissociation constant (Kd) for target DNA
# Protocol: NanR-binding duplex DNA (5′-[…] […]-3′, SEQ ID NO:15) was chemically synthesized. NanR was dialyzed extensively against Tris buffer (50 mM Tris-HCl, pH 7.0; 300 mM NaCl) and the DNA was diluted to 0.03 mM in the same buffer. Protein and DNA samples were degassed by vacuum aspiration for 20 minutes prior to loading and titration was carried out at 25° C. The NanR dimer in the syringe (0.48 mM) was titrated against the 0.03 mM DNA sample in the reaction cell. Analysis of the interaction between the NanR/ManNAc-6P complex and the DNA sample was performed using 0.48 mM of complex and 0.03 mM of DNA. The calorimetric assays were performed using a VP-ITC (MicroCal Inc., Northampton, Mass.). The stirring speed was 300 rpm and the thermal power was recorded every 10 seconds. Data were processed and plotted using the Origin program (version 7) supplied with the instrument.
# as §2
# PnanTp = assay: E. coli dual plasmid system (luciferase reporter fused to PnanTp); assay type: cell-based; conditions: for luciferase activity (PnanTp) after addition of Neu5Ac: BSE1201 host, arabinose, presence or absence of Neu5Ac; for repressive effect of NanR on activity of PnanTp: point mutations in DBD
# Protocol: E. coli strains were co-transformed with a luciferase reporter plasmid (pBS0915) and one of the pNB-series of plasmids that express NanR. Cells were cultured overnight and then diluted into the appropriate fresh media (supplemented M9 in FIG. 3; LB in FIG. 4) containing arabinose (0.002%), and incubated at 37° C. until cells grew to early exponential phase. Relative luminescence unit (RLU) was calculated by dividing the luminescence by the A600, as described previously. For screening ligand-sensing residues, the BSE1201 strain (ΔaraBAD ΔnanE) was used as the host cell instead of DH5α to ensure that the arabinose was not used as a carbon source and that ManNAc-6P generated from Neu5Ac was accumulated in the cell.
# To assess the importance of the interaction between ManNAc-6P and NanR to regulation of the nan genes, the residues involved in ligand-binding were mutated and the impact on NanR function was investigated using an E. coli dual plasmid system. Cells were cotransformed with plasmids containing a luciferase reporter gene fused to the NanR-binding nanT(PSL)AR promoter (PnanTp), and wild-type or mutant NanR, and then incubated in the presence of arabinose and the presence or absence of Neu5Ac.
# The simplest helix-turn-helix (HTH)-containing DBD includes three core helices; the HTH domains can form tetra-helical bundle, winged helix, and ribbon-helix-helix type configurations. The DBD of NanR is composed of a six-helix bundle, which is not the archetypal conformation of HTH-containing domains; therefore, the recognition helix required for DNA-binding could not been determined. […] The importance of these residues to DNA-binding was examined using an E. coli dual plasmid system described in Example 2. The repressive effect of wild-type NanR on activity of PnanTp was abolished by the R57A, R57L, R60A, and R60L point mutations (FIG. 4c).
# PnanE = assay: In vitro transcription assay; assay type: biochemical, Vibrio vulnificus; conditions: 100 nM NanR protein, presence or absence of 1 mM ManNAc-6P
# Protocol: In vitro transcription assays with wild-type or mutant NanR proteins were performed according to procedures described previously. RNA extraction, cDNA synthesis, and real time PCR amplification of the cDNA were performed as described previously.
Molecule,luciferase activity (PnanTp) after addition of Neu5Ac (PnanTp),DNA binding in EMSA [1],other results
"CC(=O)N[C@@H]1C(O)O[C@H](COP(=O)(O)O)[C@@H](O)[C@@H]1O (some centres unmarked) [ManNAc-6P, N-acetylmannosamine 6-phosphate]",,,effect of ManNAc-6P on DNA migration in EMSA ([1]; addition of ManNAc-6P): retardation of DNA migration; effect of ManNAc-6P on DNaseI protection by NanR [2]: cleavage bands at the center of the NanR-binding site disappeared
B1,increased following addition of Neu5Ac,,Kd [3]: 1.4 µM
B2,unable to activate PnanTp,,
B3,unable to activate PnanTp,,
B4,unable to activate PnanTp,,
B5,unable to activate PnanTp,,
B6,unable to activate PnanTp,,
B7,unable to activate PnanTp,,
B8,unable to activate PnanTp,,
B9,,No DNA migration was detected,repressive effect of NanR on activity of PnanTp (PnanTp): abolished; repression of PnanE transcription (PnanE): did not repress PnanE
B10,,,repressive effect of NanR on activity of PnanTp (PnanTp): abolished
B11,,No DNA migration was detected,repressive effect of NanR on activity of PnanTp (PnanTp): abolished; repression of PnanE transcription (PnanE): did not repress PnanE
B12,,,repressive effect of NanR on activity of PnanTp (PnanTp): abolished
B13,as active as wild-type NanR,,
B14,,,Kd [3]: 186 µM; reduction of interaction affinity for DNA versus NanR dimer ([3]; NanR complexed with ManNAc-6P): 130 fold
B15,,not as conspicuous as that of wild-type NanR,
B16,,not as conspicuous as that of wild-type NanR,
B17,,not as conspicuous as that of wild-type NanR,
B18,,not as conspicuous as that of wild-type NanR,

# From US9482669B2, “Crystal structure of the NanR and ManNAc-6P complex, and uses thereof” (priority 2013, dated 2016)
